From FireProtDB
“And” between values parts separate entries of the source, which are not always exact repeats. Equal values may be shown once.

B1: Thioredoxin, P80579 (parent)
chain: ATMTLTDANFQQAIQGDKPVLVDFWAAWCGPCRMMAPVLEEFAEAHADKVTVAKLNVDENPETTSQFGIMSIPTLILFKGGRPVKQLIGYQPKEQLEAQLADVLQ
B2: Lysozyme C, P61626 (parent)
chain: MKALIVLGLVLLSVTVQGKVFERCELARTLKRLGMDGYRGISLANWMCLAKWESGYNTRATNYNAGDRSTDYGIFQINSRYWCNDGKTPGAVNACHLSCSALLQDNIADAVACAKRVVRDPQGIRAWVAWRNRCQNRDVRQYVQGCGV
B3: Membrane-associated guanylate kinase, WW and PDZ domain-containing protein 1, Q96QZ7 (parent)
chain: MSKVIQKKNHWTSRVHECTVKRGPQGELGVTVLGGAEHGEFPYVGAVAAVEAAGLPGGGEGPRLGEGELLLEVQGVRVSGLPRYDVLGVIDSCKEAVTFKAVRQGGRLNKDLRHFLNQRFQKGSPDHELQQTIRDNLYRHAVPCTTRSPREGEVPGVDYNFLTVKEFLDLEQSGTLLEVGTYEGNYYGTPKPPSQPVSGKVITTDALHSLQSGSKQSTPKRTKSYNDMQNAGIVHAENEEEDDVPEMNSSFTADSGEQEEHTLQETALPPVNSSIIAAPITDPSQKFPQYLPLSAEDNLGPLPENWEMAYTENGEVYFIDHNTKTTSWLDPRCLNKQQKPLEECEDDEGVHTEELDSELELPAGWEKIEDPVYGIYYVDHINRKTQYENPVLEAKRKKQLEQQQQQQQQQQQQQQQQQQQQTEEWTEDHSALVPPVIPNHPPSNPEPAREVPLQGKPFFTRNPSELKGKFIHTKLRKSSRGFGFTVVGGDEPDEFLQIKSLVLDGPAALDGKMETGDVIVSVNDTCVLGHTHAQVVKIFQSIPIGASVDLELCRGYPLPFDPDDPNTSLVTSVAILDKEPIIVNGQETYDSPASHSSKTGKVNGMKDARPSSPADVASNSSHGYPNDTVSLASSIATQPELITVHIVKGPMGFGFTIADSPGGGGQRVKQIVDSPRCRGLKEGDLIVEVNKKNVQALTHNQVVDMLVECPKGSEVTLLVQRGGLPVPKKSPKSQPLERKDSQNSSQHSVSSHRSLHTASPSHSTQVLPEFPPAEAQAPDQTDSSGQKKPDPFKIWAQSRSMYENRPMSPSPASGLSKGEREREINSTNFGECPIPDYQEQDIFLWRKETGFGFRILGGNEPGEPIYIGHIVPLGAADTDGRLRSGDELICVDGTPVIGKSHQLVVQLMQQAAKQGHVNLTVRRKVVFAVPKTENEVPSPASSHHSSNQPASLTEEKRTPQGSQNSLNTVSSGSGSTSGIGSGGGGGSGVVSTVVQPYDVEIRRGENEGFGFVIVSSVSRPEAGTTFAGNACVAMPHKIGRIIEGSPADRCGKLKVGDRILAVNGCSITNKSHSDIVNLIKEAGNTVTLRIIPGDESSNATLLTNAEKIATITTTHTPSQQGTQETRNTTKPKQESQFEFKAPQATQEQDFYTVELERGAKGFGFSLRGGREYNMDLYVLRLAEDGPAERCGKMRIGDEILEINGETTKNMKHSRAIELIKNGGRRVRLFLKRGDGSVPEYDPSSDRHGPATGPQGVPEVRAGPDRRQHPSLESSYPPDLHKSSPHGEKRAHARDPKGSREYSRQPNEHHTWNGTSRKPDSGACRPKDRAPEGRRDAQAERAAAANGPKRRSPEKRREGTRSADNTLERREKHEKRRDVSPERRRERSPTRRRDGSPSRRRRSLERLLEQRRSPERRRGGSPERRAKSTDRRRARSPERRRERSLDKRNREDRASHREREEANLKQDAGRSSRHPPEQRRRPYKECSTDLSI
B4: Malate dehydrogenase, P80040 (parent)
chain: MRKKISIIGAGFVGSTTAHWLAAKELGDIVLLDFVEGVPQGKALDLYEASPIEGFDVRVTGTNNYADTANSDVIVVTSGAPRKPGMSREDLIKVNADITRACISQAAPLSPNAVIIMVNNPLDAMTYLAAEVSGFPKERVIGQAGVLDAARYRTFIAMEAGVSVEDVQAMLMGGHGDEMVPLPRFSTISGIPVSEFIAPDRLAQIVERTRKGGGEIVNLLKTGSAYYAPAAATAQMVEAVLKDKKRVMPVAAYLTGQYGLNDIYFGVPVILGAGGVEKILELPLNEEEMALLNASAKAVRATLDTLKSL
B5: Phosphocarrier protein HPr, P42013 (parent)
chain: MAEKTFKVVSDSGIHARPATILVQTASKFNSEIQLEYNGKTVNLKSIMGVMSLGIPKGATIKITAEGADAAEAMAALTDTLAKEGLAE
B6: Glutathione S-transferase Mu 1, P04905 (parent)
chain: MPMILGYWNVRGLTHPIRLLLEYTDSSYEEKRYAMGDAPDYDRSQWLNEKFKLGLDFPNLPYLIDGSRKITQSNAIMRYLARKHHLCGETEEERIRADIVENQVMDNRMQLIMLCYNPDFEKQKPEFLKTIPEKMKLYSEFLGKRPWFAGDKVTYVDFLAYDILDQYHIFEPKCLDAFPNLKDFLARFEGLKKISAYMKSSRYLSTPIFSKLAQWSNK

Variants of: B1
Conditions: Alicyclobacillus acidocaldarius subsp. acidocaldarius; pH 7; GdHCl; CD; Sodium phosphate 10 mM; reversible: yes; structure 1QUW; whole UniProt chain shown
With D102X the “denaturant midpoint (higher = more stable)” value (“denaturant midpoint” for short) was 2 M. For R82E, the “denaturant midpoint” value was 2.7 M. In the case of K18G R82E, the “denaturant midpoint” value is reported as 2.4 M.

Same assay, conditions: Alicyclobacillus acidocaldarius subsp. acidocaldarius; pH 7; Urea; CD; Sodium phosphate 10 mM; reversible: yes; structure 1QUW; whole UniProt chain shown
For D102X, the “denaturant midpoint” value was 4 M. In the case of R82E, the “denaturant midpoint” value is reported as 5.5 M. With K18G R82E the “denaturant midpoint” value was 4.6 M. In the case of K18G, the “denaturant midpoint” value is reported as 5.2 M.

Same assay, conditions: Alicyclobacillus acidocaldarius subsp. acidocaldarius; pH 7; Thermal; CD; Sodium phosphate 10 mM; reversible: yes; structure 1QUW; whole UniProt chain shown
For R82E, the Tm was 81.5 °C and 81.4 °C. For K18G R82E, the Tm was 73.1 °C. With K18G the Tm was 78.1 °C and 78.8 °C.

Variants of: B2
Conditions: Homo sapiens; pH 4; 10 °C; GdnHCl; CD; GdnHCl 40 mM; reversible: yes; structure 1LZ1; whole UniProt chain shown
In the case of I74T, the “ddG of mutation (higher = less stable)” value is reported as 6.67 kcal/mol, the denaturant m value is reported as 2.96 kcal/mol/M and the “denaturant midpoint” value is reported as 2.7 M. The unfolding free energy was 7.31 kcal/mol. For D85H, the “ddG of mutation (higher = less stable)” value was 4.54 kcal/mol, the denaturant m value was 3.2 kcal/mol/M and the “denaturant midpoint” value was 3.1 M. The unfolding free energy was 9.44 kcal/mol.

Same assay, conditions: Homo sapiens; pH 5.2; 20 °C; GdnHCl; CD; Sodium acetate 20 mM; reversible: yes; structure 1LZ1; whole UniProt chain shown
In the case of W82C C83A, the “ddG of mutation (higher = less stable)” value is reported as 2.2 kcal/mol, the denaturant m value is reported as 3.3 kcal/mol/M and the “denaturant midpoint” value is reported as 3.79 M. It also gave an unfolding free energy of 12.5 kcal/mol.

Same assay, conditions: Homo sapiens; pH 2.35; 36.7 °C; Thermal; DSC; Gly-HCl 0.05 M; reversible: yes; structure 1LZ1; whole UniProt chain shown
For I77A, the “unfolding enthalpy (calorimetric)” value was 55.7 kcal/mol and the “unfolding enthalpy (van 't Hoff)” value was 58.1 kcal/mol.

Same assay, conditions: Homo sapiens; pH 2.9; 47.2 °C; Thermal; DSC; Gly-HCl 0.05 M; reversible: yes; structure 1LZ1; whole UniProt chain shown
In the case of I77A, the “unfolding enthalpy (calorimetric)” value is reported as 72.7 kcal/mol and the “unfolding enthalpy (van 't Hoff)” value is reported as 74.8 kcal/mol.

Same assay, conditions: Homo sapiens; pH 3; 10 °C; GdnHCl; Fluorescence; glycine-HCl 40 mM; reversible: yes; structure 1LZ1; whole UniProt chain shown
In the case of C95A C113A, the “ddG of mutation (higher = less stable)” value is reported as 5.7 kcal/mol and the unfolding free energy is reported as 6.1 kcal/mol.

Same assay, conditions: Homo sapiens; pH 4; 10 °C; GdnHCl; CD; glycine-HCl 40 mM; reversible: yes; structure 1LZ1; whole UniProt chain shown
With C95A C113A the “ddG of mutation (higher = less stable)” value was 5.8 kcal/mol and the unfolding free energy was 8.2 kcal/mol.

Variants of: B3
Conditions: Homo sapiens; pH 7; Thermal; CD; Tris-HCl 20 mM; NaCl 100 mM; structure 2ZAJ; whole UniProt chain shown
In the case of D370S, the “unfolding enthalpy (calorimetric)” value is reported as 14.4 kcal/mol and 9.15 kcal/mol and the “unfolding enthalpy (van 't Hoff)” value is reported as 9.37 kcal/mol and 9.15 kcal/mol.

Variants of: B4
Conditions: Chloroflexus aurantiacus (strain ATCC 29366 / DSM 635 / J-10-fl); pH 7.5; Thermal; CD; potassium phosphate 10 mM; reversible: No; structure 1GUY; whole UniProt chain shown
In the case of T187C, the Tm is reported as 82.8 °C and the “change of melting temperature, mutant - wild type (higher = more stable)” value is reported as 15 °C.

Variants of: B5
Conditions: Geobacillus stearothermophilus; pH 7; 25 °C; Urea; CD; sodium phosphate 10 mM; reversible: yes; structure 1Y4Y; whole UniProt chain shown
For F29W, the “ddG of mutation (higher = less stable)” value was 0.86 kcal/mol, the denaturant m value was 1.06 kcal/mol/M and the unfolding free energy was 7.37 kcal/mol.

Same assay, conditions: Geobacillus stearothermophilus; pH 7; Thermal; CD; sodium phosphate 10 mM; NaCl 750 mM; reversible: yes; structure 1Y4Y; whole UniProt chain shown
Work on F29W yielded a Tm of 85.3 °C.

Same assay, conditions: Geobacillus stearothermophilus; pH 7; Thermal; CD; sodium phosphate 10 mM; reversible: yes; structure 1Y4Y; whole UniProt chain shown
For F29W, the Tm was 83.7 °C and the “change of melting temperature, mutant - wild type (higher = more stable)” value was -4.4 °C.

Variants of: B6
Conditions: Rattus norvegicus; pH 6.5; 20 °C; Urea; CD; NaH2PO4 20 mM; NaCl 0.1 M; reversible: Yes; structure 1GSB; whole UniProt chain shown
With F57S R82A the denaturant m value was 2 kcal/mol/M, the “denaturant midpoint” value was 4.6 M and the unfolding free energy was 10.1 kcal/mol.
